In US20260242478A1 (published 2026):
Where no end group is shown, it is not given here.

What was measured:
anti-CD28 Fab = assay: competition ELISA, peptide titrated 0-100 uM against 1 nM anti-CD28 Fab, plate-bound CD28 as competitor
[1] = target: T1, Anti-PSMA Fab (SEQ ID NOs: 19, 20); assay: phage binding ELISA; biotinylated anti-PSMA Fab captured on neutravidin plate, clonal phage supernatant, anti-M13 HRP detection
T1 construct: Biotinylated and captured on neutravidin coated plates in the phage ELISA; also called 006 PSMA Fab

[2] = target: T1, Anti-PSMA Fab (SEQ ID NOs: 19, 20); assay: phage binding ELISA; Fab-coated wells pre-incubated with PSMA antigen (competitor: PSMA), then clonal phage, anti-M13 HRP detection
[3] = target: T2, Anti-CD28 Fab (SEQ ID NOs: 696, 697); assay: phage binding ELISA on captured anti-CD28 Fab; competitor CD28 antigen
T2 construct: Biotinylated and captured on neutravidin coated plates in the phage ELISA

[4] = target: T2, Anti-CD28 Fab (SEQ ID NOs: 696, 697); assay: phage binding ELISA; biotinylated anti-CD28 Fab on neutravidin plate, anti-M13 HRP detection
Ab-15 [5] = assay: binding ELISA: biotinylated peptide on neutravidin plate, Ab-15 titrated
Ab-15 [6] = assay: BLI (Octet): sensor loaded with 200 nM biotinylated peptide, 100 nM Ab-15;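 also: binding association and dissociation tracked in real time, fitted to a 1:1 binding model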
Ab-15 [7] = assay: competition ELISA: peptide titrated against 1 nM Ab-15; competitor plate-bound CD28

| Binder | IC50 (anti-CD28 Fab) | EC50 (Ab-15 [5]) | Octet signal (Ab-15 [6]) | t1/2 (Ab-15 [6]) | IC50 (Ab-15 [7]) | further results |
| --- | --- | --- | --- | --- | --- | --- |
| LCAAGATYPWPLCL [Peptide-144] | 3040 nM | – | – | – | – | – |
| LCAAGATYPWPTCL [Peptide-147] | 8150 nM | – | – | – | – | – |
| TCSAGATYEWPRCL [Peptide-149] | 2660 nM | – | – | – | – | – |
| SCGWLRGEEFGWWC (tested as crude phage supernatant) [Phage-1739 (clonal phage displaying the peptide of SEQ ID NO: 2023)] | – | – | – | – | – | Anti-PSMA Fab (SEQ ID NOs: 19, 20) signal [1]: 0.891; Anti-PSMA Fab signal in the presence of PSMA [2]: 0.0625 |
| TCSAGATWAWPLCF [Peptide-152] | 2220 nM | – | – | – | – | – |
| YWSCFQIPFTCFYF (Clonal phage supernatant; also called Peptide-75; not shown: fused to the pIII filament protein of the bacteriophage) [Phage-454] | – | – | – | – | – | Anti-CD28 Fab signal in the presence of CD28 [3]: 0.27; Anti-CD28 Fab (SEQ ID NOs: 696, 697) signal [4]: 1.44 |
| SCSAGAAYYWPWCL [Peptide-151] | 80500 nM | – | – | – | – | – |
| TCSAGAAYSWPACF [Peptide-146] | 16100 nM | – | – | – | – | – |
| TCAAGATYLWPTCL [Peptide-153] | 8420 nM | – | – | – | – | – |
| TCAAGAAWGWPLCF [Peptide-143] | 2560 nM | – | – | – | – | – |
| SCSAGAHYPWPQCF [Peptide-148] | 5670 nM | – | – | – | – | – |
| ADWCPRDLWVHCFA (cysteine pairing not given here; also: biotinylated, site not given here, CD28 peptide mask) [Peptide-52] | – | 75.9 nM | 0.7 | 3.1 min | 2000 nM | – |
| VDWCPRDLWVHCFA (cysteine pairing not given here; also: biotinylated, site not given here, CD28 peptide mask) [Peptide-69] | – | 32.5 nM | 0.919 | 2.9 min | 4420 nM | – |
| HDWCPRDLWVHCFA (cysteine pairing not given here; also: biotinylated, site not given here, CD28 peptide mask) [Peptide-59] | – | 45.4 nM | 0.737 | 3 min | 2180 nM | – |
| IDWCPRDLWVHCFA (cysteine pairing not given here; also: biotinylated, site not given here, CD28 peptide mask) [Peptide-60] | – | 44.9 nM | 0.845 | 3.1 min | 2660 nM | – |
| FDWCPRDLWVHCFA (cysteine pairing not given here; also: biotinylated, site not given here, CD28 peptide mask) [Peptide-63] | – | 39.3 nM | 1.01 | 3.3 min | 780 nM | – |
| LDWCPRDLWVHCFA (cysteine pairing not given here; also: biotinylated, site not given here, CD28 peptide mask) [Peptide-61] | – | 23.4 nM | 1.37 | 4.5 min | 630 nM | – |
| PDWCPRDLWVHCFA (cysteine pairing not given here; also: biotinylated, site not given here, CD28 peptide mask) [Peptide-64] | – | 102 nM | 0.328 | 3.4 min | 8340 nM | – |
| SDWCPRDLWVHCFA (cysteine pairing not given here; also: biotinylated, site not given here, CD28 peptide mask) [Peptide-65] | – | 66.5 nM | 0.551 | 2.9 min | 2630 nM | – |
| YDWCPRDLWVHCFA (cysteine pairing not given here; also: biotinylated, site not given here, CD28 peptide mask) [Peptide-68] | – | 32.2 nM | 0.849 | 2.9 min | 3250 nM | – |
| WDWCPRDLWVHCFA (cysteine pairing not given here; also: biotinylated, site not given here, CD28 peptide mask) [Peptide-67] | – | 21.7 nM | 1.15 | 4.1 min | 2800 nM | – |

| Binder | IC50 (anti-CD28 Fab) | EC50 (Ab-15 [5]) | Octet signal (Ab-15 [6]) | t1/2 (Ab-15 [6]) | IC50 (Ab-15 [7]) | further results |
| --- | --- | --- | --- | --- | --- | --- |
| DDWCPRDLWVHCFA (cysteine pairing not given here; also: biotinylated, site not given here, CD28 peptide mask) [Peptide-55] | – | 86.8 nM | 0.461 | 4.2 min | 4460 nM | – |
| NDWCPRDLWVHCFA (cysteine pairing not given here; also: biotinylated, site not given here, CD28 peptide mask) [Peptide-54] | – | 84.3 nM | 0.434 | 4 min | 5030 nM | – |
| GDWCPRDLWVHCFA (cysteine pairing not given here; also: biotinylated, site not given here, CD28 peptide mask) [Peptide-58] | – | 73.9 nM | 0.479 | 3.9 min | 7060 nM | – |
| PDCQTILFKPWCVR (cysteine pairing not given here; also: displayed as fusion to phage pIII, linker and pIII sequence not given here, Clonal phage supernatant; also called Peptide-78; not shown: fused to the pIII filament protein of the bacteriophage) [Phage-457] | – | – | – | – | – | Anti-CD28 Fab signal in the presence of CD28 [3]: 0.06; Anti-CD28 Fab (SEQ ID NOs: 696, 697) signal [4]: 2.09 |
| TCSAGAHYPWPICL [Peptide-150] | 4760 nM | – | – | – | – | – |
| PDCVYHSFWGYSCR (tested as crude phage supernatant) [Phage-1740 (clonal phage displaying the peptide of SEQ ID NO: 2024)] | – | – | – | – | – | Anti-PSMA Fab (SEQ ID NOs: 19, 20) signal [1]: 0.583; Anti-PSMA Fab signal in the presence of PSMA [2]: 0.0641 |
| TCSAGASYPWPLCL [Peptide-139] | 2190 nM | – | – | – | – | – |
| TCSAGAAYPWPLCL [Peptide-145] | 7700 nM | – | – | – | – | – |
| FMCLPQNPHPLCFK (Clonal phage supernatant; also called Peptide-77; not shown: fused to the pIII filament protein of the bacteriophage) [Phage-456] | – | – | – | – | – | Anti-CD28 Fab signal in the presence of CD28 [3]: 0.06; Anti-CD28 Fab (SEQ ID NOs: 696, 697) signal [4]: 0.84 |
| LCAAGASWPWPVCL [Peptide-138] | 3610 nM | – | – | – | – | – |
| TCAAGATWSWPACF [Peptide-142] | 620 nM | – | – | – | – | – |
| TCAAGAHYPWPACL [Peptide-154] | 2200 nM | – | – | – | – | – |
| TCAAGAAWPWPQCL [Peptide-140] | 760 nM | – | – | – | – | – |
| SCAAGASYAWPYCL (Clonal phage supernatant; also called Peptide-92; not shown: fused to the pIII filament protein of the bacteriophage) [Phage-471] | – | – | – | – | – | Anti-CD28 Fab signal in the presence of CD28 [3]: 0.05; Anti-CD28 Fab (SEQ ID NOs: 696, 697) signal [4]: 1.49 |
| FVPCIPSHWLCPIW (tested as crude phage supernatant) [Phage-1741 (clonal phage displaying the peptide of SEQ ID NO: 2037)] | – | – | – | – | – | Anti-PSMA Fab (SEQ ID NOs: 19, 20) signal [1]: 1.05; Anti-PSMA Fab signal in the presence of PSMA [2]: 0.292 |
| WECLKYTEANACTY (Clonal phage supernatant; also called Peptide-76; not shown: fused to the pIII filament protein of the bacteriophage) [Phage-455] | – | – | – | – | – | Anti-CD28 Fab signal in the presence of CD28 [3]: 0.07; Anti-CD28 Fab (SEQ ID NOs: 696, 697) signal [4]: 1.55 |
| ACDTYFAGMINECF (cysteine pairing not given here; also: displayed as fusion to phage pIII, linker and pIII sequence not given here, Clonal phage supernatant; also called Peptide-79; not shown: fused to the pIII filament protein of the bacteriophage) [Phage-458] | – | – | – | – | – | Anti-CD28 Fab signal in the presence of CD28 [3]: 0.1; Anti-CD28 Fab (SEQ ID NOs: 696, 697) signal [4]: 0.92 |
| GCQYPWAFDAMSCP (cysteine pairing not given here; also: displayed as fusion to phage pIII, linker and pIII sequence not given here, Clonal phage supernatant; also called Peptide-80; not shown: fused to the pIII filament protein of the bacteriophage) [Phage-459] | – | – | – | – | – | Anti-CD28 Fab signal in the presence of CD28 [3]: 0.07; Anti-CD28 Fab (SEQ ID NOs: 696, 697) signal [4]: 2.38 |
| TCSAGATYTWPKCF [Peptide-141] | 2220 nM | – | – | – | – | – |
| ACHSLVLKHHLQKC (tested as crude phage supernatant) [Phage-1738 (clonal phage displaying the peptide of SEQ ID NO: 2022)] | – | – | – | – | – | Anti-PSMA Fab (SEQ ID NOs: 19, 20) signal [1]: 1.18; Anti-PSMA Fab signal in the presence of PSMA [2]: 0.0624 |
| TCSAGATWPWPICL [Peptide-137] | 890 nM | – | – | – | – | – |
